Laboratory results: a protein production outcome set (Wang et al. 2014)

Assay: label from the status in PepcDB records
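Further: failed if final PepcDB status was selected cloned or expressed and not failed if soluble or beyond.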

Sequence	protein production
MIKPSNYQPPYTITPAIVNLVAEIGEIIGRYTVLAEQNLTPRLRRENRIRTIQASLAIENNTLTLEQVTAVIDGKRVLGHPREIQEVRNAFATYEAMEDWDASVEGDLLAAHELLMRGLVDETGRYRSGGVGIFRGEQLVHMAPPADRVPKLMADLLDWLENTNEHPLVASCIFHYEFEFIHPFADGNGRMGRLWQTLILRNWKPLLAYLPVETVIRDRQEDYYRVLAVADSQADATPFVEFMLGALRDAVREAVSTDHVGDQVTDQVAALIRAIGGGELSSNDLMQALGLSHRPTFRNNYLNPAMEDEWIERTQPDSPRSPTQRYRLTGKGQRWLQHHADE	not failed
MIKRDFRKKLTMCLASVMALNLGISVSVKADEGLKNEIKNNDITKDISIYPTPKDMTVGNSEFTLEDSVNIVGGDLADTYAFELLKNMLTEFGIKINESEIEGATTIYIGESDDNIEEMENTLEEMNVDTSSISKDEGYVLVTDENIEGNKIVIRGNDETGTFYGVKSLKQLIKKEDNKVILDEVVIKDEPSFKMRAVVEGFYGTPWSQEERLDQIKMYGEYKMNAYIYAPKSDPYHREKWREPYPASELDRMKELIKTANENKVDFVFAISPGLDIKFEGEEGEADFKALINKAETLYDMGVRSFAILWDDIENRSGVQQAEVLNRFNKEFIKNKEGVKPLITVPVEYWGSSMFNGEEVKTYTKEFAETLDKDIEVMWTGNDVIPPNGVSLEDAKKVSNVYNRKMMLWWNYPVNDYKEDKMALGPIYDLDRNLDEDVSGFIVNPMRFSDASKISTLTGADYGWNSISYEAEKSWDKAIEIIAGEMKEEFKIFANHSTRLDTGRPDSPEIKNTIDSLWEKWEAGSDISLELSNLQNEFSKMVQVPNKLRSNLENKALLNQLDSHLSKFEIYGNAGLKSIEILQDILNKDMSEFWSDNFEGIKLLRNLDGIKATIANNVVDPFIRKVHEVGNEYFNKETTVLEEKEYSYTSIGNIVDHKYSEWFISEETHVPNYMFDDKDNTGFWSAAPVQKDEFIGFDLGEAEEIKDIYLLMGRNNNDTDVLTNGVIEYSLDGENWTELEVNKGERELLVETGIKARFIRYRALSDSENKLYVRDFKVNTGKSKEKLIGDVEVKDSNINKSSEGENEIISASNINKISFEEGDSIGLAINDVKNVIGFEVLGDVESNKFVLESSFDNIEWEEVCNGTSFKDETPLVGKFFRIRAKEKTEANINEIKISLEGYSKGIVSTNRRISSNANIHPDFVADNDYGTSFVCSDTIKKGDFVQLDLGVEKKIRDISLVQGPGGDYMDGDIEYSLDGENWIKLGVVEGTDTLIKDLDVKARYVRVISTGYKDRWSRVREFTVNKTVKEFETKATSEGTYIDRSENIRDNNLNSAYIPEGEIKSGDYLLRRIFNERLVSKVTVAQSTDNLSGAKVIGKTVNGETLDLGVLDKGLNELVLKNPRQLVSVKLVWEKDAGKVEIFEVKPTFVSLDYIIEDIKNEIQRGKDVLVEHKDKENEERTQLEEALKNIENLLNNKASDDEIVRAYEDLTNKINNFIDSEPNKEEENKPSKPEGGENGSEGEGDKEDSGDKNENEDNKDENGNLPNTGSPLGAGELMLVGAALATLGGVTIKKKK	failed
MIKSFRHKGLKKFFESGSTAGIQPAHKNRLARQLHQLNVASCPDDMNLPGWGLHLLQGKNPKKQDVDGHYSISVNGNWRLTFYFDHGDAVLVDYQDYH	failed
MIKSKGDVNILLNFRHNINGEDLIIAVAQDHETGEVLMVAYMNREALRRTLETGTAHYWSTSRGKLWLKGESSGHVQRVKDVLVDCDGDAVVLKVEQEGGACHTGYRSCFYRSIDGDELKVREDAVKVFDPEEIYGDG	not failed
MIKSTNIQAIGSGIMHQINNVYSLTPLSLPMELTPSCNEFYLKTWSEWEKNGTPGEQRNIAFNRLKICLQNQEAELNLSELDLKTLPDLPPQITTLEIRKNLLTHLPDLPPMLKVIHAQFNQLESLPALPETLEELNAGDNKIKELPFLPENLTHLRVHNNRLHILPLLPPELKLLVVSGNRLDSIPPFPDKLEGLALANNFIEQLPELPFSMNRAVLMNNNLTTLPESVLRLAQNAFVNVAGNPLSGHT	failed
MIKTHYAKLALSAFAVSILASCANLGMTGVADGNNSEQTYLGQINYQDQTITKASAKKLNREIDLQRASQLTLWAMPMVGMYQSYNSTIALFDLQEGDAPIIGLHEGYDGVYPFLTANVTTPYTISLVDLSETGPYVVNIPAGSIFGVANNAWQEPIKEIGSGNKETLLFVGPGQEYPKDFDGEVIQSDTNQILYFYRVLGVGAEAEKLKTAVTAYKLSDVANPPQVKFVIYKPKASDADVTIATQPRGMAYWEVVNQYIQNEPMADRDRFFYAWLKDLGIEKGKAFNPTPYQKEILLEGVNTGMAMAQSLAFNKTKKKFSSSLYGSDSGWEGVLAGMDPKIDLDTYSMINERTAYTYEAVTTSAGMIVENPGHGSAYIGSYYDADGNALMGGKNYTLHIEPNPPAANFWSITVYDIKNRLIIRNEIKRSDLSSRSESLVMNSDGSVDLYFGPEAPEGKEGNWIQSNDGESYFMYLRLYGPEQEYFDQTYPMNKIDKTK	failed
MIKVRVASRARAAEGIAQLDLVCAEGRDLPAFEAGAHIDLFLGNGLTRQYSLCSDPAERSFYRIAVLRELTSRGGSAYVHEALTEGATLEISPPRNLFALDETAEEHLLFAGGVGVTPILAMAKRLSALGRAFTFHYCARDRSRAAFLNELSTAPFTSAVRLSFDAEPDTRLDLDVALARPKPGRRLYVCGPGGFMTHVIDGALARGWSGDQIRKEHFAAAPLSAGQDQPFELVIASSGQIVTVAADQTAAQALEAAGVFVPVSCEQGVCGTCLTRVIDGQPDHRDAFQTDEERAANDQFTPCCSRARSPRLVLDL	failed
MIKVWLQQGRGLWLALFLGLLSPALVHAEEAPPGLVKVPLDRRVIDLTATLDSATQERMVHKLEALEQRRGAQIAVMLVPNLGQQSIEALSNQLFRAWKLGRKGVDDGILLLVAKNDHKVRIEVGYGLEPVVTDLLAGQIIAQDLTPAFRQGDFAGGIDRALDDLILLVDGGSLPEPAGLAVPLEAYALLLAFVFGSVAGVMLAAGWNWRRVLGGAVVLMAVLVGAVGGHEWLAQLFLVPLCMLIGGATFAGLWQARRVFYGVLGLLLYIGLLTLVSQYLGRLTFLYGLAWPAGVLLVLGGHWLLYWMMRNSWRKSPRGFLWRFAVLLTLVLLMGLGVDAWQAAQRWLRVVPFAYFLSFILFAGGSGFRWSSGGGSSSGGRSSSGGGFSGGGGSSGGGGASGSW	failed
MILHRYLLRESLPVLLLALLFLTAVYLFGFFYAGARWLEGVPLPKILRWLSYHVPGIWVQVFPIALVTTTVLVFGRLAAEGAHFALLSAGIPLGRAALPLVAVGAVLSGLALYLQEYVVPEANNRVRVAWWDEIHTQGAGLFRLKGMQIPIGQGKSLYFQDFDMAAKEMVGVRITAFQGEVGTFLFAERGTWEDKTLTLKDYRYYQVDFAQVPGLETAPDLLAQVRRVFRVVSQGKTLEVTSDLSRARAIADYADTFSFGQDSLSEAWRKLKDPFLPPLEKWRARLELHSKLALPLANLVLVLLAAAMALRYGKSPGLALGMSVVLALAYYGAFFLGRALAGIGALPPELGAWGANLLFLLLGLRALR	failed
MILKSSIDRLLQTIDIVEVISSYVNLRKSGSSYMACCPFHEERSASFSVNQIKGFYHCFGCGASGDSIKFVMAFEKLSFVEALEKLAHRFNIVLEYDKGVYYDHKEDYHLLEMVSSLYQEELFNAPFFLNYLQKRGLSLESIKAFKLGLCTNRIDYGIENKGLNKDKLIELGVLGKSDNDQKTYLRFLDRIMFPIYSPSAQVVGFGGRTLKEKAAKYINSPQSKLFDKSSLLYGYHLAKEHIYKQKQVIVTEGYLDVILLHQAGFKNAIATLGTALTPSHLPLLKKGDPEILLSYDGDKAGRNAAYKASLMLAKEQRRGGVILFENNLDPADMIANGQIETLKNWLSHPMAFIEFVLRRMADSYLLDDPLEKDKALKEMLGFLKNFSLLLQSEYKPLIATLLQAPLHVLGIRERVSFQPFYPKTEKPNRPQRFAHVSSAPSLEFLEKLVIRYLLEDRSLLDLAVGYIHSGVFLHKKQEFDALCQEKLDDPKLVALLLDANLPLKKGGFEKELRLLILRYFERQLKEIPKSSLPFSEKMICLKKARQAIMKLKQGELVAI	failed
MILLGVSERSDHSLHITGVDDAHKLVQDFWNTVHDSSTISSVVLSENDVVVRHTGQGDIVSIDIPRASRERIPVYVGPNPLKGSYRRNGDGDYLCDSETVHAMLRDSDLRPLDRKIVGG	failed
MILMMENRMPKGIQKTETSEKNIEKVLNAYDKQQHHHQDDLAIQYLPAVRAMAFRLKERLPSSIDFNDLVSIGTEELIKLARRYESALNDSFWGYAKTRVNGAMLDYLRSLDVISRSSRKLIKSIDIEITKHLNEHGKEPSDAYLAQTLGENIEKIKEAKTASDIYALVPIDEQFNAIEQDEITKKIEAEELLEHVQKALNQMSEREQILIQLYYFEELNLSEIKEILGITESRISQIIKEVIKKVRKSLGVDHG	failed
MILPWLILIPFIGGLLCWLGERFGATLPRWIALLTMTLELALGLWLWAHGNYSFAPAPGADPTWAIEFKHVWIERFGINVHLALDGLSLLMILLTGLLGILSVLCSWKEIQRHVGFFHLNLMWILGGVVGVFLALDLFMFFFFWEMMLVPMYFLIALWGHSSADGKKTRIYAATKFFIFTQASGLIMLVAILGLVLVNFNNTGVITFDYAQLLKTKMSTATEYILMLGFFIAFAVKLPVVPFHSWLPDAHAQAPTAGSVDLAGILLKTAAYGLLRFALPLFPNASAEFAPIAMTLGLIGIFYGAFLAFAQTDIKRLIAFSSVSHMGFVLIGIYSGSQQALQGAVIQMLAHGVSAAALFILSGQLYERTHTRDMREMGGLWSRIAYLPAISLFFAAASLGLPGTGNFVGEFLILIGTFVSAPWITAIATSGLVFGSVYSLIMIHRAYFGPSKSDAVLHGMDARELIMVLGLAVLLIYIGVYPQPFLDTSAATMHGVQQWLSTAFTQLASAR	failed
MILSMSGVVLLGIVVFLFFRKDGLKGTHACTCALFGFYLSSTAIAPSIKAGGASLASLLGGIRF	failed
MILSMSIFGSIGFFSVQTGLPSFELVFVRCICATIFLALCWLVTGQYKSEQWNKKEIMQILACGVFLVFNWVFLFKAFEVMSITIAISVYHLAPIIVLMIGSIVFKERLTMFAVLSIVICFIGTVLVAGVDGSLSLEKLMSSGMVWALLAALFYAFTTLLGKGIQHTSAYAMTFLQTFLGIFLLLPFVDFGKFQGLTEMNWMMITATGLIHTGFVYYLFFDSLRDLSTRMISVLVFLDPAVAILLDTVFTGFRPTSMQVVGIVLIFVGMAFTFRKTKDEEIAVKEKLYS	failed
MILTILIGAMAAIFIAFNLFEKKEKYGVVSYKTIALSVTYVILAVIVGSFLDNFNTLFQGFHDSLTAAKRY	failed
MILTRSSLVKRLTLMIMFAVIAVLVVAGISFNMLSQHHFRMLDEQALSEKLESTRHILSIQAPGTGMEELRPQLRALLGAHQDLTAEILTSEGEVLFSDLKAVQIPDKYKRADKEEMWEWQDESHNFRGITTDVEIQGQPAPGTVMLMLDITSHAHFFETLQRWFAIGLVISALVSAGIGWLVAKSGLRPVEQITKVATSISARSLQERIPLEPVPLELQTLILSFNGMLARLEDAFVRLSNFSADIAHELRTPVSNLLTHTEVVLTRKRDVDAYEENLYSNLEDLKRMSRMIDDMLFLAKSDNGLIIPEQVDIQLHDLVSKLFEYYQLLADDRGIRLTLQGKGVISGDRLMIDRAVSNILSNAVRYTPDGSGISVEIQQAADKVTLTIKNGGATIDPQHINKIFDRFYRADPARREGGPSNAGLGLAITRSIVKAHDGKVWCTSSEGVTAFNFIFPAAHRTAHIRTRH	failed
MILTSTEGQEGLPRYFPQVMKMLARMQAGRLDIALPDGRVFRSEGPEPGPVARVDIHDTDVFARLIREGELGFSDAYLEQDWSTPDLRAFMDLVHQGEETVYDGFTGQFLARAYERLRFWLQRNHRKQAKKNISYHYDLGNDFYALWLDETMTYSSALFETGQESLEKAQEAKYASLLDEMGAQPGDHILEIGCGWGGFAEYAARQRGMRVTGLTISQEQFKFARERIEKAGLSDQVHFKLQDYRDETGSYDGIASIEMFEAVGEKYWPVYFDTVRARLKPGKRATLQIITVADRRWEIYRNGVDFIQKYIFPGGMLPAPGILREQVARAGLEFVQSREFGKSYDLTLRRWYETFNDKWDQVAELGFDDRFRRMWNFYLTSCGAAFDTGTCDVTQMTVARPNHS	failed
